Experimental findings from patent publication US20140193430A1 are described below.

The target in test [1] is recombinant KIR2DL3 protein (entire extracellular domain, produced in E. coli, refolded) (human) (UniProt P43628). Put plainly: BIAcore, second Ab on KIR2DL3 chip with first Ab (competitor) 1-4F1 bound. For orientation: Surface plasmon resonance follows binding to a sensor surface in real time, without labels.
Test [2] has the same target. Put plainly: BIAcore, second Ab on KIR2DL3 chip with first Ab (competitor) 1-6F1 bound.
For test [3] the target is unchanged. As to the kind of experiment: BIAcore competition on KIR2DL3 chip; first Ab gl183, second Ab (competitor) 1-7F9.
For test [4] the target is unchanged. As to the kind of experiment: BIAcore, second Ab on KIR2DL3 chip with first Ab (competitor) 1-7F9 bound.
The target is the same in test [5]. As to the kind of experiment: BIAcore competition on KIR2DL3 chip; first Ab gl183, second Ab (competitor) Pan2D.
Test [6] has the same target. As to the kind of experiment: BIAcore, direct binding of second Ab to KIR2DL3 chip (field of first Ab 1-6F1).
Test [7] shares this target. As to the kind of experiment: BIAcore, direct binding of second Ab to KIR2DL3 chip (field of first Ab 1-7F9).
The target is the same in test [8]. Put plainly: BIAcore competition on KIR2DL3 chip; first Ab gl183, second Ab (competitor) DF200.
Test [9] shares this target. As to the kind of experiment: BIAcore competition on KIR2DL3 chip; first Ab gl183, second Ab (competitor) 1-6F1.
Test [10] shares this target. Put plainly: BIAcore, direct binding of second Ab to KIR2DL3 chip (field of first Ab 1-4F1).
For test [11] the target is unchanged. Put plainly: BIAcore competition on KIR2DL3 chip; first Ab gl183, second Ab (competitor) 1-4F1.
For test [12], the target named is recombinant KIR2DL1 protein (entire extracellular domain, produced in E. coli, refolded) (human) (UniProt P43626). Put plainly: BIAcore competition on KIR2DL1 chip; first Ab DF200, second Ab (competitor) 1-6F5.
Test [13] shares this target. Put plainly: BIAcore competition on KIR2DL1 chip; first Ab DF200, second Ab (competitor) EB6.
Test [14] shares this target. As to the kind of experiment: BIAcore, direct binding of second Ab to KIR2DL1 chip (field of first Ab 1-6F5).
In test [15] the target is KIR2DL1-hFc (complete extra-cellular domain of KIR2DL1, amino acids H1-H224, wild-type, fused to human Fc) (human) (UniProt P43626). As to the kind of experiment: ELISA, KIR2DL1-hFc captured via goat anti-human antibodies, mAb titrated, peroxidase anti-mouse, A450 [panel DF200].
The target in test [16] is KIR2DL1(R131W)-hFc (human) (UniProt P43626). Put plainly: ELISA, KIR2DL1(R131W)-hFc captured via goat anti-human antibodies, mAb titrated, peroxidase anti-mouse, A450 [panel DF200].
Test [17] has as its target immobilized KIR2DS1 (UniProt Q14954). Put plainly: BIAcore, second Ab on KIR2DS1 chip with first Ab (competitor) 1-7F9 bound.
The target in test [18] is recombinant KIR2DL3 protein (entire extracellular domain, produced in E. coli, refolded) (human) (UniProt P43628). As to the kind of experiment: BIAcore competition on KIR2DL3 chip; first Ab DF200, second Ab (competitor) 1-7F9.
For test [19] the target is unchanged. Put plainly: BIAcore competition on KIR2DL3 chip; first Ab DF200, second Ab (competitor) 1-6F5.
For test [20], the target named is recombinant KIR2DL1 protein (entire extracellular domain, produced in E. coli, refolded) (human) (UniProt P43626). As to the kind of experiment: BIAcore, direct binding of second Ab to KIR2DL1 chip (field of first Ab 1-6F1).
Test [21] deals with recombinant KIR2DL3 protein (entire extracellular domain, produced in E. coli, refolded) (human) (UniProt P43628). As to the kind of experiment: BIAcore competition on KIR2DL3 chip; first Ab DF200, second Ab (competitor) Pan2D.
Test [22] has as its target recombinant KIR2DL1 protein (entire extracellular domain, produced in E. coli, refolded) (human) (UniProt P43626). As to the kind of experiment: BIAcore, second Ab on KIR2DL1 chip with first Ab (competitor) 1-7F9 bound.
For test [23] the target is unchanged. Put plainly: BIAcore, second Ab on KIR2DL1 chip with first Ab (competitor) 1-6F1 bound.
Test [24] has as its target recombinant KIR2DL3 protein (entire extracellular domain, produced in E. coli, refolded) (human) (UniProt P43628). Put plainly: BIAcore competition on KIR2DL3 chip; first Ab DF200, second Ab (competitor) gl183.
The target is the same in test [25]. Put plainly: BIAcore competition on KIR2DL3 chip; first Ab DF200, second Ab (competitor) 1-6F1.
The target in test [26] is recombinant KIR2DL1 protein (entire extracellular domain, produced in E. coli, refolded) (human) (UniProt P43626). As to the kind of experiment: BIAcore competition on KIR2DL1 chip; first Ab DF200, second Ab (competitor) 1-6F1.
Test [27] has the same target. Put plainly: BIAcore competition on KIR2DL1 chip; first Ab DF200, second Ab (competitor) 1-7F9.
Test [28] has the same target. As to the kind of experiment: BIAcore, second Ab on KIR2DL1 chip with first Ab (competitor) 1-6F5 bound.
The target in test [29] is immobilized KIR2DS1 (UniProt Q14954). As to the kind of experiment: BIAcore competition on KIR2DS1 chip; first Ab DF200, second Ab (competitor) 1-7F9.
Test [30] addresses recombinant KIR2DL1 protein (entire extracellular domain, produced in E. coli, refolded) (human) (UniProt P43626). As to the kind of experiment: BIAcore competition on KIR2DL1 chip; first Ab DF200, second Ab (competitor) Pan2D.
Test [31] shares this target. Put plainly: BIAcore, direct binding of second Ab to KIR2DL1 chip (field of first Ab 1-7F9).
Test [32] has as its target immobilized KIR2DS1 (UniProt Q14954). Put plainly: BIAcore, direct binding of second Ab to KIR2DS1 chip (field of first Ab 1-7F9).
For test [33] the target is unchanged. As to the kind of experiment: BIAcore competition on KIR2DS1 chip; first Ab DF200, second Ab (competitor) Pan2D.
For test [34] the target is unchanged. Put plainly: BIAcore competition on KIR2DS1 chip; first Ab DF200, second Ab (competitor) 1-4F1.
Test [35] concerns the target recombinant KIR2DL1 protein (entire extracellular domain, produced in E. coli, refolded) (human) (UniProt P43626). Put plainly: BIAcore competition on KIR2DL1 chip; first Ab DF200, second Ab (competitor) 1-4F1.
The target in test [36] is recombinant KIR2DL3 protein (entire extracellular domain, produced in E. coli, refolded) (human) (UniProt P43628). Put plainly: BIAcore, second Ab on KIR2DL3 chip with first Ab (competitor) 1-6F5 bound.
Test [37] has the same target. Put plainly: BIAcore competition on KIR2DL3 chip; first Ab DF200, second Ab (competitor) 1-4F1.
For test [38] the target is unchanged. As to the kind of experiment: BIAcore, direct binding of second Ab to KIR2DL3 chip (field of first Ab 1-6F5).

Chain of recombinant KIR2DL1 protein (entire extracellular domain, produced in E. coli, refolded) (human) (P43626 22-245): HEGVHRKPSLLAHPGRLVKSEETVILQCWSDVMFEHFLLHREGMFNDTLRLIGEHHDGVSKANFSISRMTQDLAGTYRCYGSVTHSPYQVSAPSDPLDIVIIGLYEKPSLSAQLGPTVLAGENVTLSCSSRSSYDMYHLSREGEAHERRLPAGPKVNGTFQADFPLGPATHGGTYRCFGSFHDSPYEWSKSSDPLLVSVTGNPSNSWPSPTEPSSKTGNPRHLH
Chain of immobilized KIR2DS1 (Q14954 22-245 limits assumed): as the sequence (P43626 22-245) above, with T70K, V90L, L114P, P154T, D163N, H182R, K216E counted along it
Chain of recombinant KIR2DL3 protein (entire extracellular domain, produced in E. coli, refolded) (human) (P43628 22-245): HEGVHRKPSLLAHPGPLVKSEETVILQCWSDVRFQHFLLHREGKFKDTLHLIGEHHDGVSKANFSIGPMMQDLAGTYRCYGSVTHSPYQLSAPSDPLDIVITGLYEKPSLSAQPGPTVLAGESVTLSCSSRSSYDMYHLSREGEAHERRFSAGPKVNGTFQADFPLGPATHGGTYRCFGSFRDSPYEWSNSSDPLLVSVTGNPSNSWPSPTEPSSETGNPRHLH
Chain of KIR2DL1-hFc (complete extra-cellular domain of KIR2DL1, amino acids H1-H224, wild-type, fused to human Fc) (human) (P43626 22-245): as the sequence (P43626 22-245) above
Chain of KIR2DL1(R131W)-hFc (human) (P43626 22-245 R152W): as the sequence (P43626 22-245) above, with R131W counted along it

Turning to GL183 (IgG1 anti KIR2DL3) (antibody), the results for the RU, binding with first Ab present (RU2) in test [1], in test [2] and in test [4] were 330 RU, 570 RU and 200 RU, respectively. Besides, the % inhibition of second Ab binding by first Ab in [3] turned out to be 76%; in test [5], 40%; in test [8], 8%; in test [9] it was 18%; in test [11], 75%. Besides, the RU, direct binding (RU1) in test [6] turned out to be 620 RU; in [7] it was 800 RU; in [10] it was 1240 RU.
For the substance “monoclonal antibody DF200 produced by hybridoma DF200”, the % inhibition of second Ab binding by first Ab came to 15% in [12]; 90% in test [13]; 62% in test [18]; 4% in test [19]; 75% in test [21]; 20% in test [24]. Besides, the % inhibition of second Ab binding by first Ab was 16% in [25]; 15% in test [26]; 27% in test [27]; 15% with immobilized KIR2DS1 [29]; 80% in test [30]; 70% with immobilized KIR2DS1 [33]. In addition, the % inhibition of second Ab binding by first Ab in the test with immobilized KIR2DS1 [34] was 87%; in test [35] it was 92%; in [37], 75%. Moreover, the RU, binding with first Ab present (RU2) was determined as 210 RU in [1]; 760 RU in [2]; 1090 RU with immobilized KIR2DS1 [17]; 450 RU in [4]; 545 RU in [22]; 310 RU in [23]. In addition, the RU, binding with first Ab present (RU2) in [28] was found to be 290 RU; in test [36], 760 RU. Also, the RU, direct binding (RU1) was found to be 350 RU in test [14]; 350 RU in [20]; 790 RU in [6]; 770 RU in [7]; 600 RU in test [31]; 900 RU with immobilized KIR2DS1 [32]. The RU, direct binding (RU1) was 1140 RU in [10] and 800 RU in test [38]. The EC50 (read off the curve) in [15] and in [16] was 0.02 µM throughout.
